Measured values taken from PMC5618690, “Structural and functional analysis of two small leucine-rich repeat proteoglycans, fibromodulin and chondroadherin” (Matrix Biology, 2017).
“Also recorded” adds a separate entry of the source.

Columns and labels:
[1] = C-terminal 14 residues; ref [15]; cited from earlier work
Description: The collagen-binding site on chondroadherin has not been mapped. […] These positions map to the α-helix in the C-terminal cap of chondroadherin. Glu316, the last residue of the α-helix, appears to be critical for integrin binding and may interact with the metal ion-dependent adhesion site of the integrin α2 I domain [45], [46].

collagen I = settings: ref [11]; cited from earlier work
Description: (§1) Chondroadherin knockout mice present with ...

[2] = Affinity of untagged protein for Ni^2 + resin
Description: For purification of His-tagged fibromodulin, the filtered serum-free cell culture supernatant was adjusted to a final concentration of 20 mM Na-HEPES (pH 7.5) and loaded onto a 5-ml HisTrap Excel column (GE Healthcare) using an Äkta Purifier (GE Healthcare). The column was washed with buffer A (20 mM HEPES pH 7.5, 150 mM NaCl, 2 mM CaCl2) and the protein was eluted with 500 mM imidazole in buffer A. To remove the His-tag, fractions containing protein were incubated overnight with recombinant His-tagged TEV protease (made in E. coli using an expression vector kindly provided by Stephen Curry) while dialysing against buffer A. The reaction mixture was passed over a 5-ml HisTrap Excel column, and the flow-through containing the untagged fibromodulin protein was collected. After concentration using a Vivaspin centrifugal device (Sartorius), the fibromodulin protein was further purified by size exclusion chromatography on a Superdex 75 10/300 GL column (GE Healthcare) using buffer A as the running buffer. The purified protein ran as a single broad band of ~ 55 kDa on reducing SDS-PAGE (calculated: 41.5 kDa + 4 N-linked glycans).
The natural affinity of chondroadherin for Ni^2 + affinity resin was used to purify the untagged protein. […]

collagen II [3] = test: Chondroadherin binding to collagen II mapped with Toolkit II; settings: mapped with Toolkit II solid-phase assay; six of the nine triplets in II-26
Description: (§2) Recombinant purified chondroadherin was biotinylated using biotin EZ-link reagent (ThermoFisher) and dialysed into TBS to remove excess biotinylation reagent. Collagen peptides from Toolkit II and III [57], [58] were coated on a 96-well plate at 10 μg/ml in 20 mM acetic acid overnight at 4 °C. […] The following incubations were conducted at room temperature. Plates were rinsed three times with TBS and blocked for 1 h with 5% BSA in TBS. After rinsing with TBS, plates were incubated with biotinylated chondroadherin at 10 μg/ml in TBST (TBS with 0.1% Tween-20) with 0.1% BSA for 1 h. Plates were washed three times with TBST, and incubated with streptavidin-HRP (Millipore) diluted 1:20,000 in TBST with 0.1% BSA for 1 h. Plates were washed five times with TBST, and the binding was detected with TMB substrate (ThermoFisher) and stopped with 2 M sulphuric acid. The absorbance was read at 450 nm.

[4] = SEC-MALS, oligomeric state in solution; format: physicochemical; settings: for oligomeric state in solution / experimentally determined mass: SEC-MALS; for oligomeric state in solution: 10 mg/ml injected, pH 7.5, peak protein concentration estimated at least 50 μM; for experimentally determined mass: Superdex 75, 10 mg/ml injected, 150 mM NaCl, 20 mM HEPES (pH 7.5), 0.1 ml/min; for dissociation constant of dimer (if any): inferred from SEC-MALS, compared with decorin dimer 1.4 μM
Description: Fibromodulin and chondroadherin samples at a concentration of 10 mg/ml were injected onto a Superdex 75 10/30 column (GE Healthcare) connected to a 1260 Infinity HPLC (Agilent Technologies). The running buffer was 150 mM NaCl, 20 mM HEPES (pH 7.5) and the flow rate was 0.1 ml/min. Light scattering and refractive index changes were monitored using in-line Wyatt Mini Dawn and Optilab T-rEX detectors (Wyatt Technology Corp). The data were analysed with the Wyatt ASTRA V software. Each N-linked glycosylation site was assumed to add 2 kDa of molecular mass. The extinction coefficients for fibromodulin and chondroadherin were calculated as 32,930 and 40,715 M^− 1 cm^− 1, respectively.

collagen II [5] = settings: ref [13]; cited from earlier work
Description: One of the more distant homologues of fibromodulin is chondroadherin, a class IV SLRP found in cartilage and bone. Chondroadherin-deficient mice have thinner cortical bones and longer growth plate proliferation zones, as well as mechanically softer knee surface cartilage.

collagen III = test: Chondroadherin binding to collagen III; settings: Collagen Toolkit III solid-phase assay
Description: as §2

integrin α2β1 = settings: cited from earlier work
Description: One of the more distant homologues of fibromodulin is chondroadherin, a class IV SLRP found in cartilage and bone. Chondroadherin-deficient mice have thinner cortical bones and longer growth plate proliferation zones, as well as mechanically softer knee surface cartilage. […] These positions map to the α-helix in the C-terminal cap of chondroadherin. Glu316, the last residue of the α-helix, appears to be critical for integrin binding and may interact with the metal ion-dependent adhesion site of the integrin α2 I domain [45], [46].

[6] = system: Collagen Toolkits II and III; settings: Toolkit peptides from collagens II and III; ref [9]; cited from earlier work
Description: as §1

Lysyl oxidase = settings: very N-terminus of fibromodulin; ref [9]; cited from earlier work
Description: Previous studies with bacterially expressed fibromodulin fragments identified LRRs 5-7 and 11 (VI-VIII and XII in the numbering scheme used here) as important for collagen binding, [25]. Thus, the collagen binding site appears to be located in the C-terminal half of fibromodulin, potentially leaving the N-terminal half containing most of the surface-exposed aromatic residues free to interact with another partner.

[7] = not SEC-MALS of this work; ref [26], [32], [33]; cited from earlier work
Description: Fig. 3 Concave face interactions in SLRP crystal structures. For each structure, two orthogonal views are shown. […] The experimentally determined mass of fibromodulin was 56.7 kDa (calculated: 41.5 kDa + 4 N-linked glycans) and that of chondroadherin was 39.6 kDa (calculated: 38.6 kDa). In comparison, using the same SEC-MALS setup, we previously determined an experimental mass of 83.5 kDa for the glycosylated decorin core protein (calculated: 36.2 kDa + 4 N-linked glycans).

B1: chondroadherin: human chondroadherin, residues 23–359 of Uniprot O15335, untagged; vector-derived APLA sequence at the N-terminus (protein)
chain: APLACPQNCHCHSDLQHVICDKVGLQKIPKVSEKTKLLNLQRNNFPVLAANSFRAMPNLVSLHLQHCQIREVAAGAFRGLKQLIYLYLSHNDIRVLRAGAFDDLTELTYLYLDHNKVTELPRGLLSPLVNLFILQLNNNKIRELRAGAFQGAKDLRWLYLSENALSSLQPGALDDVENLAKFHVDRNQLSSYPSAALSKLRVVEELKLSHNPLKSIPDNAFQSFGRYLETLWLDNTNLEKFSDGAFLGVTTLKHVHLENNRLNQLPSNFPFDSLETLALTNNPWKCTCQLRGLRRWLEAKASRPDATCASPAKFKGQHIRDTDAFRSCKFPTKRSKKAGRH
heparan sulphate binding [1]: bind heparan sulphate | binding to collagen I (collagen I): reported binding of chondroadherin to collagen I | affinity for Ni^2 + resin [2]: substantial affinity for Ni^2 + resin | binding to collagen II (collagen II [3]): binds to a unique sequence motif in collagen II | oligomeric state in solution [4]: predominantly monomeric in solution; also recorded: neither fibromodulin nor chondroadherin forms a stable dimer in solution; also recorded: at best, very weak | experimentally determined mass [4]: 39.6 kDa | dissociation constant of dimer (if any) [4]: substantially higher than that of the decorin dimer | interaction with collagen II (collagen II [5]): interacts with collagen II | binding to collagen III (collagen III): not at all to collagen III | integrin α2β1 binding (integrin α2β1; binding site in chondroadherin, ref [44]): residues 307–318 have been identified as a binding site for integrin α2β1 | interaction with integrin α2β1 (cell-matrix interactions) (integrin α2β1; ref [14]): mediates cell-matrix interactions through binding to integrin α2β1

B2: fibromodulin: human fibromodulin residues 19–376 of UniProt Q06828, ten N-terminal tyrosines mutated to serine, natively glycosylated (protein)
chain: GALAQYEDDPHWWFHYLRSQQSTSSDPSDPSPSETSEPSPSGVDEGPASTSGSPSPPDPRDCPQECDCPPNFPTAMYCDNRNLKYLPFVPSRMKYVYFQNNQITSIQEGVFDNATGLLWIALHGNQITSDKVGRKVFSKLRHLERLYLDHNNLTRMPGPLPRSLRELHLDHNQISRVPNNALEGLENLTALYLQHNEIQEVGSSMRGLRSLILLDLSYNHLRKVPDGLPSALEQLYMEHNNVYTVPDSYFRGAPKLLYVRLSHNSLTNNGLASNTFNSSSLLELDLSYNQLQKIPPVNTNLENLYLQGNRINEFSISSFCTVVDVVNFSKLQVLRLDGNEIKRSAMPADAPLCLRLASLIEI
modifications: N-linked glycans at Asn127, Asn166, Asn201, Asn291; left off: His-tag, N-terminal, cleaved
notes: human fibromodulin residues 19–376 of UniProt Q06828, ten N-terminal tyrosines mutated to serine, natively glycosylated
binding to Toolkit peptides [6]: bound several Toolkit peptides from both collagens II and III; also recorded: binds to KGHR-containing sites in Collagen Toolkits II and III | affinity for Ni^2 + resin [2]: substantial affinity for Ni^2 + resin | binding to lysyl oxidase (Lysyl oxidase): Lysyl oxidase has been shown to bind to the very N-terminus of fibromodulin | oligomeric state in solution [4]: predominantly monomeric in solution; also recorded: neither fibromodulin nor chondroadherin forms a stable dimer in solution | experimentally determined mass [4]: 56.7 kDa | dissociation constant of dimer (if any) [4]: substantially higher than that of the decorin dimer

B3: biglycan: class I SLRP core protein (protein, UniProt P21810 38-368, looked up)
Biglycan: DEEASGADTSGVLDPDSVTPTYSAMCPFGCHCHLRVVQCSDLGLKSVPKEISPDTTLLDLQNNDISELRKDDFKGLQHLYALVLVNNKISKIHEKAFSPLRKLQKLYISKNHLVEIPPNLPSSLVELRIHDNRIRKVPKGVFSGLRNMNCIEMGGNPLENSGFEPGAFDGLKLNYLRISEAKLTGIPKDLPETLNELHLDHNKIQAIELEDLLRYSKLYRLGLGHNQIRMIENGSLSFLPTLRELHLDNNKLARVPSGLPDLKLLQVVYLHSNNITKVGVNDFCPMGFGVKRAYYNGISLFNNPVPYWEVQPATFRCVTDRLAIQFGNYKK
oligomeric state in solution (literature) [7]: form stable dimers in solution
